Data set [1] relates to HEK293F cells transfected with wild-type clec14a. Put plainly: clec14a-mediated cell-cell contact (cell aggregate) assay. The format is cell-based, human. The source says: In order to identify the mechanism by which deglyco C1 IgG acts on angiogenesis, the number of cell aggregates formed from HEK293F cells transfected with wild-type clec14a and cultured in the presence or absence of parent antibody IgG or deglyco C1 IgG was monitored to conduct functional assay on clec14a-mediated cell-cell contacts.
The parent antibody IgG was used as a positive control group to specifically block clec14a-mediated cell-cell contacts.

Data set [2] relates to HUVECs. Put plainly: HUVEC morphology by immunocytochemistry. The format is cell-based, human. On the procedure:
In addition, the morphology of HUVEC was evaluated in the presence or absence of deglyco C1 IgG using immunocytochemistry. […] In order to evaluate effects of deglyco C1 IgG on the activity of endothelial cells, which is an initial inflammatory response to a harmful stimulus, HUVECs were treated with deglyco C1 IgG, and expression of an endothelial cell activity marker including VCAM-1 (vascular cell adhesion molecule-1) and ICAM-1 (intercellular cell adhesion molecule-1) was measured to monitor HUVEC activity. Human tumor necrosis factor-alpha (hTNFα) was used as a positive control group for endothelial cell activity.
In order to investigate correlations between tumor angiogenesis and clec14a, first, xenograft tumor models including SNU182 human liver cell or CFPAC-1 human pancreatic cancer cell carcinomas were established, and immunohistochemistry was conducted on commercially available antibodies of clec14a and CD31, which is a well-known endothelial marker protein. Immunohistochemistry was conducted as follows. HUVECs (5×10^4) grown on a 0.1% (w/v) gelatin-coated glass cover slip were incubated in the presence or absence of deglyco C1 IgG for 24 hours at 37° C. […]

For data set [3], the system named is U87 human glioma cells. In words: tumor cell-derived Matrigel plug angiogenesis assay. It is filed as in vivo, mouse. The following applies: single dose of 10 mg/kg, 2 weeks, nude mice. The procedure:
(§1) In order to investigate in vivo effects of deglyco C1 IgG on tumor angiogenesis, tumor cell-derived Matrigel plug angiogenesis assay was conducted on thymus-removed nude mice. SNU182- and CFPAC-1 cells and U87 human glioma cells containing Matrigel were transplanted into thymus-removed nude mice in the presence of deglyco C1 IgG and bevacizumab with a single dose of 10 mg/kg or in the absence thereof. 2 weeks later, the Matrigel plug was removed and the total hemoglobulin content of each group was measured with an ELISA reader.

Data set [4] has as its system CFPAC-1 cells. Described as above. The format is in vivo, mouse. The following applies: single dose of 10 mg/kg, 2 weeks, nude mice. On the procedure:
as §1

Data set [5] relates to SNU182 cells. The description is as above. It is filed as in vivo, mouse. The following applies: single dose of 10 mg/kg, 2 weeks, nude mice. On the procedure: as §1
Data set [6] relates to HUVECs. In words: flow cytometry binding to endothelial cells. The format is cell-based, human. On the procedure: In order to identify whether or not deglyco C1 IgG binds to human endothelial cells, flow cytometry was conducted with HUVECs. […] In addition, in order to measure binding affinity of C1 IgG to hclec14a-ECD (extracellular domain of human clec14a), binding affinity of antibody-antigen binding was measured in real time. It can be seen that deglyco C1 IgG has a KD constant (equilibrium dissociation constant) of 6 nM, which is similar to that of parent antibody IgG (FIG. 3C).
(A flow cytometer gives signals particle by particle.)

The test system of data set [7] is VEGF-dependent tube formation. Put plainly: VEGF-dependent HUVEC tube formation assay. It is filed as cell-based, human. The note with it: 20 μg ml^−1, 18 hours. The procedure: In order to investigate in vitro effects of deglyco C1 IgG on VEGF-dependent angiogenesis, HUVECs were treated with VEGF in the presence or absence of deglyco C1 IgG, and then HUVEC tube formation assay was conducted. 150 μl of Matrigel was added to a 48-well plate and incubated at 37° C. for 30 minutes. HUVEC (10^5) cultured in EGM-2 were collected, seeded on the Matrigel-coated plate and incubated at 37° C. for 18 hours in the presence or absence of clone 1 IgG, parent antibody IgG, deglycosylated clec14a-CTLD IgG or bevacizumab. HUVECs cultured in VEGF-containing EBM (endothelial cell basal medium) were seeded to the Matrigel-coated plate and incubated at 37° C. for 18 hours in the presence or absence of deglyco C1 IgG (20 μg ml^−1).

The test system of data set [8] is VEGF-dependent microvessel formation. Put plainly: mouse Matrigel plug assay, VEGF-dependent microvessel formation. It is filed as in vivo. The procedure:
In order to observe in vivo efficacies of deglyco C1 IgG on VEGF-dependent angiogenesis, a mouse Matrigel model was established, hemoglobin level was measured as a marker of microvessel formation, and inhibitory activities against microvessel formation of deglyco C1 IgG and bevacizumab were compared by a mouse Matrigel plug assay.

Data set [9] concerns VEGF-dependent blood vessel growth in rat aorta. Put plainly: ex vivo rat aortic ring assay. The note with it: cultured in combination with VEGF. The procedure:
In order to further investigate effects of deglyco C1 IgG on VEGF-dependent angiogenesis, ex vivo rat aortic ring assay was conducted in the presence or absence of deglyco C1 IgG and bevacizumab. Blood vessels were almost not grown in the rat aorta in endothelial basal medium (EBM), whereas most blood vessels were grown in the rat aorta under VEGF expression conditions.

B1: deglyco C1 IgG: deglycosylated clone 1 IgG; light chain CDR1 TGSSSNIGRCGVT (SEQ ID NO: 2), N32R/N33C/S34G (antibody, V domains shown)
VH: EVQLVESGGGLVQPGGSLRLSCAVSGFTFSGYDMSWIRQAPGKGLEWVAGIYPDGGNTYYADSVKGRFTISRDDSKNTFYLQMNSLRAEDTAVYYCARGATWWVLGPFDYWGQGTLVTVSS
VL: DIQLTQSPSSLSASVGDRVTITCTGSSSNIGRCGVTWYQQKPGKAPKLLIYADSHRPSGVPSRFSGSGSGTDFTLTISSLQPEDFATYYCGAWDDSLSGYVFGQGTKVEIKR
As to B1, the “inhibition of clec14a-mediated cell-cell contacts (cell aggregates)” value in data set [1] is recorded as “inhibitory efficacy”. Also, the “morphology of HUVECs” value in data set [2] was “did not change the morphology”. Besides, the “hemoglobin content, U87-derived” value in [3] was “significantly reduced hemoglobin”. For the same molecule, the “hemoglobin content, CFPAC-1-derived” value in data set [4] is given as “significantly reduced hemoglobin”. In addition, the “hemoglobin content, SNU182-derived” value in [5] is “significantly reduced hemoglobin”. In [6], the “binding to surfaces of HUVECs” value is on record as “specifically bound to the surfaces of HUVECs”. Further, the VEGF-dependent tube formation entry in data set [7] was “removed VEGF-dependent tube formation significantly and almost perfectly”. In addition, in data set [8], the “hemoglobin content (microvessel formation)” value is given as “significantly reduced a hemoglobin content”. In data set [9], the “number of blood vessels grown in the rat aorta” value is listed as “reduced the number of blood vessels grown in the rat aorta”.

(Values after patent US20190309074A1, “DEGLYCOSYLATED ANTIBODY SPECIFICALLY BINDING TO CLEC14A AND USES THEREOF” (WOORI TECHNOLOGIES CORPORATION, priority 2016, published 2019).)
